Measured values from patent US20200131227A1, “POLYPEPTIDE WITH TUMOUR BINDING ACTIVITY” (RUPRECHT-KARLS-UNIVERSITÄT HEIDELBERG, priority 2017, published 2020).
Entries after “also recorded” stand apart in the source; their conditions may differ. Where a SMILES comes first, the peptide text is derived from it. Bridges are numbered along the chain shown (N, C = ends). Where no end group is shown, it is not given here.

Tests used:
ITGαvβ3 = ITGαvβ3 (Homo sapiens, UniProt P05106+P06756); assay: Surface plasmon resonance assay (SPR), ITGαvβ3; format: binding; conditions: SPR
ITGαvβ3, sequence (P06756 31-992 limits assumed): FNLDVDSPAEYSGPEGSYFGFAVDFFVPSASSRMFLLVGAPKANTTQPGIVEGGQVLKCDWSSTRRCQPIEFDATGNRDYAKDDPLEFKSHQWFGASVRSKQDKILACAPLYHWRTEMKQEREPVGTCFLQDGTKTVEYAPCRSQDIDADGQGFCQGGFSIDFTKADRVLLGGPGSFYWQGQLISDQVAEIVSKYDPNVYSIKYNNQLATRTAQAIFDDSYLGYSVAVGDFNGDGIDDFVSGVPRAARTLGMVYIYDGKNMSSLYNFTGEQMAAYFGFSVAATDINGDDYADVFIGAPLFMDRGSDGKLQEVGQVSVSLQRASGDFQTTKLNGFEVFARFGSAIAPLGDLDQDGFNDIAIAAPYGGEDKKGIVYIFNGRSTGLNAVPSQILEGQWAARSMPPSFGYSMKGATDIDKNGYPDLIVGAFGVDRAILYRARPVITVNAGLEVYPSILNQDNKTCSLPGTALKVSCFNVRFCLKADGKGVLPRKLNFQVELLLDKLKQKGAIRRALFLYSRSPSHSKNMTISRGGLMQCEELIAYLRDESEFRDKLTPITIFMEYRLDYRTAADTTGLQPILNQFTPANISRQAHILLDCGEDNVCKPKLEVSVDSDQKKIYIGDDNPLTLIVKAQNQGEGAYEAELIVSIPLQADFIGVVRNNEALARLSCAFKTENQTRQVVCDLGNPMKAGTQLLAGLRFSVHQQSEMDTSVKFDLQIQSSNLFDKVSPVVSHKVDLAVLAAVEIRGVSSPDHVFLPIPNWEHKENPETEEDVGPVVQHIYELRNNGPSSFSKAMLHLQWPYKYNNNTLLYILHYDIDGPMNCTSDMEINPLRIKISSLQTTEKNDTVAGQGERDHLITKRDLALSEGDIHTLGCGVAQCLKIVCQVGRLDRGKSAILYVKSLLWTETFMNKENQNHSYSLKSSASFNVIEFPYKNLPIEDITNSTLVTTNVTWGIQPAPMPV
ITGαvβ3, sequence (P05106 27-718 limits assumed): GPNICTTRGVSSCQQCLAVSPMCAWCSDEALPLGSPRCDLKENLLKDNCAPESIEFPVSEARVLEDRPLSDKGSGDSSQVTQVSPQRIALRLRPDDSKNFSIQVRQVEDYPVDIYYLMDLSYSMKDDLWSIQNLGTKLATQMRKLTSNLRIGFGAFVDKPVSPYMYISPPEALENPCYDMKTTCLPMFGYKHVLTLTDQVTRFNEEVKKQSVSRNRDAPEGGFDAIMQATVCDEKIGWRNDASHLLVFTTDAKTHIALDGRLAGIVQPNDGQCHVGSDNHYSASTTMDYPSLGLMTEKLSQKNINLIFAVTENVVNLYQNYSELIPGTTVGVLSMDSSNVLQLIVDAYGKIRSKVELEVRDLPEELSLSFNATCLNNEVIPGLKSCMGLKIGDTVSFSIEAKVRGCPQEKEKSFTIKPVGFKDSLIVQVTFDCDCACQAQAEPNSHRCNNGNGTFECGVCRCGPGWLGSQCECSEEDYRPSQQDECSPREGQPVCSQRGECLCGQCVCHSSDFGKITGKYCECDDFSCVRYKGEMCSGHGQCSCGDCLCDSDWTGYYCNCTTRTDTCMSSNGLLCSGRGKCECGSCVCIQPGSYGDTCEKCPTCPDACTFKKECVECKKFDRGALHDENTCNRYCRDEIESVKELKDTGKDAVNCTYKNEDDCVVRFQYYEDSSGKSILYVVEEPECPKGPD
Protocol: (§1) Assessment of the binding affinity was performed on a BiaCore X100 (GE Healthcare). To avoid denaturation of the heterodimer during amide activation ITGαvβ6 and ITGαvβ3, respectively, were used as analytes and SFITGv6 was immobilized at its N-terminus on a C1 sensor Chip (BR-1005-35, GE Healthcare) using a manual amine coupling protocol. Briefly, after activation of the sensor chip surface with a solution of EDC 0.4 M/NHS 0.1 M for 5 min a 100 μM peptide dissolved in HBS-EP running buffer (0.1 M HEPES, 30 mM EDTA, 1.5 M NaCl, 0.5% surfactant P20, pH 7.2) was immobilized with a contact time of 30 sec until a loading level of 18 response units (RU) was obtained. […] The SPR-sensogram data were evaluated with the BiaCore evaluation software. The dissociation constant (KD) was determined by a 1:1 Langmuir model fit of the SPR-sensograms.
as §1, with “SFLAP3” for “peptide”, “to obtain” for “until”, “12” for “18”, “(RU).” for “(RU) was obtained.”, “SPR sensogram” for “SPR-sensogram”, “SPR sensograms.” for “SPR-sensograms.”

[1] = Serum stability assay (radio-HPLC); format: in vitro ADME, human; conditions: radio-HPLC, 37° C., up to 24 hours
Protocol: Five MBq of the purified ^131I-radiolabeled peptide was incubated in 300 μL human serum at 37° C. After different time intervals (15 min to 24 hours) 20 μL serum was precipitated with 40 μL acetonitrile. The stability of the labeled peptide in the supernatant was monitored by radio-HPLC at selected time points using a chromolith performance RP18ec column (3 mm×100 mm) equipped with a gamma detector (Packard COBRA™ Auto-Gamma, GMI). Separation condition was a gradient of 0% to 60% aqueous acetonitrile supplemented with 0.1% TFA over 10 min with a flow rate of 2 mL/min.

HNO399 xenografts = assay: Biodistribution, HNO399 xenografts; format: in vivo, mice
[2] = system: HNSCC tumor sections (HNO97 xenograft, HNO444, HNO399, HNO210); assay: Histochemical peptide staining of HNSCC tumor cryosections; design: species or system human; conditions: biotinylated PEG(12)-peptide, 10^-5 M
Protocol: Staining with the biotinylated PEG(12)-SFITGv6 peptide was performed on acetone-fixed cryosections (5 μm) of tumor tissues after blocking of unspecific binding using the Avidin/Biotin Blocking Kit (SP-2001, Vector Laboratories). A stock solution of the lyophilized peptide was prepared by dilution in 5% aqueous DMSO. Slices were incubated overnight at 4° C. with 10^-5 M peptide concentration in antibody diluent (DAKO). Detection of bound peptide was carried out with the Vectastain Elite ABC Kit (PK-6100, Vector Laboratories) according to manufacturer's protocol. Peptide specificity was ensured by a scrambled (GRD) PEG(12)-SFITGv6 derivate, the somatostatin receptor ligand DOTATOC and negative controls (without peptide or primary antibody) Staining results were assessed by bright field microscopy (BX50) with the SC30 camera and the cell Sense software (all Olympus).
Immunohistochemical stainings were performed by use of the biotinylated PEG(12)-labled peptides (SFITGv6, SFLAP3) on 5 μm acetone-fixed tumor tissue cryosections. To prevent background staining we initially applied the Avidin/Biotin Blocking Kit (SP-2001, Vector Laboratories). The lyophilized peptides were diluted in 5% aqueous DMSO preparing a 1 mM Stock solution. The HNSCC cryosections were incubated with 10^−5 M peptide concentration in antibody diluent (DAKO) at 4° C. overnight. To detect bound peptide the Vectastain Elite ABC Kit (PK-6100, Vector Laboratories) was applied according to manufacturer's protocol. Peptide binding specificity was ensured by use of a peptide derivate (scrambled control) and negative controls (without peptide). Due to instability of the peptide binding staining results were assessed on the same day by bright field microscopy (BX50) with the SC30 camera and the cell Sense software (all Olympus).

HNO223 xenografts = assay: Biodistribution, HNO223 xenografts; format: in vivo, mice
[3] = target: integrin αvβ6 (ITGαvβ6) as expressed on human carcinoma cell lines and tumor tissue sections (human) (UniProt P06756); assay: peptide competing with 125I-SFITGv6 on HNO97 cells, 60 min
integrin αvβ6 (ITGαvβ6) as expressed on human carcinoma cell lines and tumor tissue sections (human), sequence (P06756 31-1048, chain 1 of 2): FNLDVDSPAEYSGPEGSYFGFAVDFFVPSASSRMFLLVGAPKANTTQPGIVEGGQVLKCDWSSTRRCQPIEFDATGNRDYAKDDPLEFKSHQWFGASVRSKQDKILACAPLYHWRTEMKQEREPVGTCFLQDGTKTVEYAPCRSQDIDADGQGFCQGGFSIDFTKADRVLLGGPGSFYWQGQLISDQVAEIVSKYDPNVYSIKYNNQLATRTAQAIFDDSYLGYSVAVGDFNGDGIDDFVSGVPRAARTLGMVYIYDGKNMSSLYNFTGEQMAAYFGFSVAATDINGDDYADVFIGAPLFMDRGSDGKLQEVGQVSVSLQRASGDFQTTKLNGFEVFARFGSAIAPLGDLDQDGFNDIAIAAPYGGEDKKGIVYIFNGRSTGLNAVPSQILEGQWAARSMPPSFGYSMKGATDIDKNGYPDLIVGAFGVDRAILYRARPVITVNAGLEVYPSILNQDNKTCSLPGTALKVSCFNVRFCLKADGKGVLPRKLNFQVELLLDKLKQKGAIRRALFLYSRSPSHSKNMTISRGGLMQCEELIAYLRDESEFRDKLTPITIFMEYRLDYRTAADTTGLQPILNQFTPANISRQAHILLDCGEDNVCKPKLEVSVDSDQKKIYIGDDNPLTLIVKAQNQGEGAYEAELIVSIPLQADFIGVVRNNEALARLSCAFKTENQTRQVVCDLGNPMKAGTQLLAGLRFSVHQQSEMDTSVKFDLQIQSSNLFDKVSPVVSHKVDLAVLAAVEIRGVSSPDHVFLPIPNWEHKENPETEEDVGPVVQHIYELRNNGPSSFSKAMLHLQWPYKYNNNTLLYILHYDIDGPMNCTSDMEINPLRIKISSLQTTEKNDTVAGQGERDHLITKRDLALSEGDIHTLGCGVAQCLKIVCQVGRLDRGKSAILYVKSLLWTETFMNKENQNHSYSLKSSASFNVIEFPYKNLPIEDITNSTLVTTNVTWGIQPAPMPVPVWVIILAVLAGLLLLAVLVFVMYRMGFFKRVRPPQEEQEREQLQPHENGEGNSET
integrin αvβ6 (ITGαvβ6) as expressed on human carcinoma cell lines and tumor tissue sections (human), sequence (P18564 22-788, chain 2 of 2, further chain): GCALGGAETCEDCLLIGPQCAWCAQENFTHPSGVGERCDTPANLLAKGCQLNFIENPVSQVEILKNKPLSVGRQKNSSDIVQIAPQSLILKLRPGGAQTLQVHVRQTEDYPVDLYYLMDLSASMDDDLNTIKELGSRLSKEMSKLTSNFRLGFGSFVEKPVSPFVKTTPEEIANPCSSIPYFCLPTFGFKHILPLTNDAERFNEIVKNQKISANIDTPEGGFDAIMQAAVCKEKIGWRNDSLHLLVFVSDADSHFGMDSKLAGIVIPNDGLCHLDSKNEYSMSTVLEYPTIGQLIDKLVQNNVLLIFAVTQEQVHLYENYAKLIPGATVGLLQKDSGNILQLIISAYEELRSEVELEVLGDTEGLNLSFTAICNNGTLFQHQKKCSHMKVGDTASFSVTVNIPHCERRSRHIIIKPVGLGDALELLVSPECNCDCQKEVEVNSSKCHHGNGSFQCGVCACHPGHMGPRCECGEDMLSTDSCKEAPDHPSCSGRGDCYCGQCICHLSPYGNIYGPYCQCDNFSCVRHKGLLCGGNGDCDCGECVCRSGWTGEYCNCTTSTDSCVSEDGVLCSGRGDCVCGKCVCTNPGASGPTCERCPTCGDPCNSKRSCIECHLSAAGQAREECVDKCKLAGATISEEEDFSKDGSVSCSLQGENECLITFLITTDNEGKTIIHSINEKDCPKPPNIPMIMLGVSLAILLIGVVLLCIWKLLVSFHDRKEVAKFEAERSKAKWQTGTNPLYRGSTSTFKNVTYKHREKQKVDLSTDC

[4] = target: T1, ITGαvβ3 heterodimer (analyte in SPR) (UniProt P06756 31-992; P05106 27-718, limits assumed); assay: SPR, ITGαvβ3 against ITGαvβ6 on immobilised SFITGv6
T1 construct: Soluble heterodimer used as analyte over immobilised peptide; construct not described
T1 sequence (P06756 31-992 limits assumed, chain 1 of 2): as the sequence (P06756 31-992 limits assumed) above
T1 sequence (P05106 27-718 limits assumed, chain 2 of 2): as the sequence (P05106 27-718 limits assumed) above

[5] = target: T2, integrin αvβ6 (ITGαvβ6) as expressed on human carcinoma cell lines and tumor tissue sections (human, UniProt P06756 31-1048; P18564 22-788); assay: unlabeled peptide competing with 125I-SFITGv6 on HNSCC cell lines (HNO97, HNO399, HNO223), mean; mean over HNSCC cell lines
T2 construct: whole, on cells; also called ITGAVB6; ITGαvβ6-expressing HNO97 cells
T2 sequence (P06756 31-1048, chain 1 of 2): as the sequence (P06756 31-1048, chain 1 of 2) above
T2 sequence (P18564 22-788, chain 2 of 2): as the sequence (P18564 22-788, chain 2 of 2, further chain) above

[6] = target: T2, integrin αvβ6 (ITGαvβ6) as expressed on …; assay: 125I-peptide binding to HNO223 cells, 60 min
[7] = target: T2, integrin αvβ6 (ITGαvβ6) as expressed on …; assay: unlabeled peptide competing with 125I-SFITGv6 on HNO97 cells, 60 min; HNO97 cells, cell competition IC50
[8] = target: T1, ITGαvβ3 heterodimer (analyte in SPR); assay: SPR (BiaCore X100), peptide immobilised on C1 chip, ITGαvβ3 as analyte, 1:1 Langmuir fit; SPR, ITGαvβ3 as analyte
[9] = target: T2, integrin αvβ6 (ITGαvβ6) as expressed on …; assay: 125I-peptide binding to HNO199 cells, 60 min
[10] = target: T2, integrin αvβ6 (ITGαvβ6) as expressed on …; assay: 125I-peptide binding to HNO97 cells, 60 min
[11] = target: T2, integrin αvβ6 (ITGαvβ6) as expressed on …; assay: 125I-peptide binding to HNO210 cells, 60 min
[12] = target: T2, integrin αvβ6 (ITGαvβ6) as expressed on …; assay: unlabeled peptide (10^-10 to 10^-4 M) competing with the 125I-labeled peptide on HNO97 cells
[13] = target: T2, integrin αvβ6 (ITGαvβ6) as expressed on …; assay: unlabeled peptide competing with 125I-SFLAP3 on HNSCC cell lines (HNO97, HNO399, HNO223), mean; mean over HNSCC cell lines
[14] = target: T2, integrin αvβ6 (ITGαvβ6) as expressed on …; assay: competition of unlabeled SFLAP3 with 125I-SFLAP3 on HNO97 cells
[15] = target: T1, ITGαvβ3 heterodimer (analyte in SPR); assay: SPR (BiaCore X100), peptide immobilised on C1 chip, ITGαvβ3 as analyte, 1:1 Langmuir fit; SPR, αvβ3 as analyte
[16] = target: T3, ITGαvβ6 heterodimer (analyte in SPR) (UniProt P06756 31-992; P18564 22-707, limits assumed); assay: SPR (BiaCore X100), peptide immobilised on C1 chip, ITGαvβ6 as analyte, 1:1 Langmuir fit; SPR, ITGαvβ6 as analyte
T3 construct: Soluble heterodimer used as analyte over immobilised peptide; construct not described; also called heterodimeric receptor ITGαvβ6
T3 sequence (P06756 31-992 limits assumed, chain 1 of 2): as the sequence (P06756 31-992 limits assumed) above
T3 sequence (P18564 22-707 limits assumed, chain 2 of 2): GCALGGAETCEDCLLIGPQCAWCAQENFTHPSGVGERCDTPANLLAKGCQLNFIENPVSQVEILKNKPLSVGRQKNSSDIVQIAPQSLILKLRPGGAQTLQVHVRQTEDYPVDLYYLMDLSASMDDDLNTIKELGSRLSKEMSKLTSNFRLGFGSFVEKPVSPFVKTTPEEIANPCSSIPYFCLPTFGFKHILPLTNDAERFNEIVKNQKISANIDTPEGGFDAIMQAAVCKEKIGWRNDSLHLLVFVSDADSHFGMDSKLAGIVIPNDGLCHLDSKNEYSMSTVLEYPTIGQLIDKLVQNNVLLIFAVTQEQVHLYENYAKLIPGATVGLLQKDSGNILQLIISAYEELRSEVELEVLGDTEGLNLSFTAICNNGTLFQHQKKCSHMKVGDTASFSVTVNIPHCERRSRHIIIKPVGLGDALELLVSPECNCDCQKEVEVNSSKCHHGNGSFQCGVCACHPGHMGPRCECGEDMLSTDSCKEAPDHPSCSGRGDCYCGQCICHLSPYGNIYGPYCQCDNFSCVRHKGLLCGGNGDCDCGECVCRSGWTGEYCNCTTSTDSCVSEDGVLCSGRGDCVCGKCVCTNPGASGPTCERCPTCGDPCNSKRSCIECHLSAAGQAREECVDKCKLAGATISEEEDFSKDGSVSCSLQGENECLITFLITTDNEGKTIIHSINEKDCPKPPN

[17] = target: T2, integrin αvβ6 (ITGαvβ6) as expressed on …; assay: competition of unlabeled SFLAP3 with 125I-SFLAP3 on HNO399 cells
[18] = target: T2, integrin αvβ6 (ITGαvβ6) as expressed on …; assay: competition of unlabeled SFLAP3 with 125I-SFLAP3 on HNO223 cells
[19] = target: T1, ITGαvβ3 heterodimer (analyte in SPR); assay: SPR, αvβ3 heterodimer against ITGαvβ6 on immobilised SFLAP3

## CC(C)C[C@@H]1NC(=O)[C@H](CC(=O)O)NC(=O)CNC(=O)[C@H](CCCNC(=N)N)NC(=O)CNC(=O)[C@H]([C@@H](C)O)NC(=O)[C@@H](NC(=O)[C@H](CCCNC(=N)N)NC(=O)CN)CSSC[C@@H](C(=O)N[C@@H](Cc2ccc(O)cc2)C(=O)N2CCC[C@H]2C(=O)N[C@@H](CC(=O)O)C(=O)O)NC(=O)[C@H](CC(C)C)NC(=O)[C@H](CCCNC(=N)N)NC(=O)CNC1=O [SFLAP3, H2N-G-R-C1-T-G-R-G-D-L-G-R-L-C2-Y-P-D-COOH] (H-GRCTGRGDLGRLCYPD-OH; disulfide 3-13)
ITGαvβ3
  lower affinity for ITGαvβ3 than for ITGαvβ6: 10 fold
[1]
  proteolytic stability in human serum: no degradation over a 24 hours; also recorded: shown for up to 24 hours
HNO399 xenografts; 60 min post injection
  maximum accumulation in the tumor lesion: 3.6 % ID/g
HNO399 xenografts; 360 min after injection
  accumulation in the tumor after decrease: ~2%
[2]
  histochemical peptide staining result: slightly fainter staining capacity
HNO223 xenografts; 60 min post injection, HNO233-xenografted as printed
  maximum accumulation in the tumor lesion: 3.4 % ID/g
HNO223 xenografts; 360 min after injection
  accumulation in the tumor after decrease: ~2%

## A20FMDV2 (peptide)
[3]
  IC50: 3.2 nM

B1: SFITGv6 (peptide)
peptide: GRCTFRGDLMQLCYPD
modifications: disulfide 3-13 (inferred); not fully specified (C-terminus); also: 125I on the tyrosine in labelled tracer form
notes: Synthetic SFTI-1 derivate
[4]
  fold lower affinity than for ITGαvβ6: 10 fold
[5]
  IC50: 14.1 nM
[6]
  percent of applied dose bound per 10^6 cells: 13.5%
[7]
  IC50: 16.1 nM
[8]
  Kd: 185 nM

B2: SFPF-10 (peptide)
peptide: GRCTFRGDKMQLCYPD
modifications: disulfide 3-13 (inferred); also: 125I on the tyrosine in labelled tracer form
notes: Originally selected peptide of the SFTI8Ph library
[9]
  percent of applied dose bound per 10^6 cells: 3.1%
[10]
  percent of applied dose bound per 10^6 cells: 7.2%
[6]
  percent of applied dose bound per 10^6 cells: 11%
[11]
  percent of applied dose bound per 10^6 cells: 5%
[12]
  IC50: 18 nM

B3: SFLAP3 (peptide)
peptide: GRCTGRGDLGRLCYPD
modifications: disulfide 3-13 (inferred); not fully specified (C-terminus); also: 125I on the tyrosine in labelled tracer form
[9]
  percent of applied dose bound per 10^6 cells: 19.7%
[10]
  percent of applied dose bound per 10^6 cells: 24.7%
[13]
  IC50: 3.5 nM
[14]
  IC50: 4.7 nM
[6]
  percent of applied dose bound per 10^6 cells: 17.6%
[11]
  percent of applied dose bound per 10^6 cells: 10.6%
[15]
  Kd: 185 nM
[16]
  Kd: 7.4 nM
[17]
  IC50: 3.25 nM
[18]
  IC50: 2.56 nM
[19]
  fold lower affinity than for ITGαvβ6: 10 fold
